From article doi:10.1101/2025.04.04.647053 (bioRxiv, 2025)

Biological target: the molecule itself
Assay: cryo-EM structure

B1: AND-1 (natural protein, H. sapiens, UniProt O75717 1-1129, looked up)
chain: MPATRKPMRYGHTEGHTEVCFDDSGSFIVTCGSDGDVRIWEDLDDDDPKFINVGEKAYSCALKSGKLVTAVSNNTIQVHTFPEGVPDGILTRFTTNANHVVFNGDGTKIAAGSSDFLVKIVDVMDSSQQKTFRGHDAPVLSLSFDPKDIFLASASCDGSVRVWQISDQTCAISWPLLQKCNDVINAKSICRLAWQPKSGKLLAIPVEKSVKLYRRESWSHQFDLSDNFISQTLNIVTWSPCGQYLAAGSINGLIIVWNVETKDCMERVKHEKGYAICGLAWHPTCGRISYTDAEGNLGLLENVCDPSGKTSSSKVSSRVEKDYNDLFDGDDMSNAGDFLNDNAVEIPSFSKGIINDDEDDEDLMMASGRPRQRSHILEDDENSVDISMLKTGSSLLKEEEEDGQEGSIHNLPLVTSQRPFYDGPMPTPRQKPFQSGSTPLHLTHRFMVWNSIGIIRCYNDEQDNAIDVEFHDTSIHHATHLSNTLNYTIADLSHEAILLACESTDELASKLHCLHFSSWDSSKEWIIDLPQNEDIEAICLGQGWAAAATSALLLRLFTIGGVQKEVFSLAGPVVSMAGHGEQLFIVYHRGTGFDGDQCLGVQLLELGKKKKQILHGDPLPLTRKSYLAWIGFSAEGTPCYVDSEGIVRMLNRGLGNTWTPICNTREHCKGKSDHYWVVGIHENPQQLRCIPCKGSRFPPTLPRPAVAILSFKLPYCQIATEKGQMEEQFWRSVIFHNHLDYLAKNGYEYEESTKNQATKEQQELLMKMLALSCKLEREFRCVELADLMTQNAVNLAIKYASRSRKLILAQKLSELAVEKAAELTATQVEEEEEEEDFRKKLNAGYSNTATEWSQPRFRNQVEEDAEDSGEADDEEKPEIHKPGQNSFSKSTNSSDVSAKSGAVTFSSQGRVNPFKVSASSKEPAMSMNSARSTNILDNMGKSSKKSTALSRTTNNEKSPIIKPLIPKPKPKQASAASYFQKRNSQTNKTEEVKEENLKNVLSETPAICPPQNTENQRPKTGFQMWLEENRSNILSDNPDFSDEADIIKEGMIRFRVLSTEERKVWANKAKGETASEGTEAKKRKRVVDESDETENQEEKAKENLNLSKKQKPLDFSTNQKLSAFAFKQE
With B1 the “stoichiometry N” value was 3.
